Test results taken from patent US20090012268A1 (B R A H M S, published 2009).
Numbering of substitutions follows the chain as printed. Values joined by “and” are separate entries in the source; they are usually repeats but may differ in a detail not shown here. Equal entries are not always repeated. Blank lines part the entries; values can stand above or below the binder they belong to.

Tests used:
[1] = target: human TSH receptor expressed on cells (human, UniProt P16473 21-764); test: cell-based or functional assay
mouse TSHr = mouse TSHr (mouse, UniProt P47750 22-764); test: cell-based or functional assay
Chain of mouse TSHr (P47750 22-764): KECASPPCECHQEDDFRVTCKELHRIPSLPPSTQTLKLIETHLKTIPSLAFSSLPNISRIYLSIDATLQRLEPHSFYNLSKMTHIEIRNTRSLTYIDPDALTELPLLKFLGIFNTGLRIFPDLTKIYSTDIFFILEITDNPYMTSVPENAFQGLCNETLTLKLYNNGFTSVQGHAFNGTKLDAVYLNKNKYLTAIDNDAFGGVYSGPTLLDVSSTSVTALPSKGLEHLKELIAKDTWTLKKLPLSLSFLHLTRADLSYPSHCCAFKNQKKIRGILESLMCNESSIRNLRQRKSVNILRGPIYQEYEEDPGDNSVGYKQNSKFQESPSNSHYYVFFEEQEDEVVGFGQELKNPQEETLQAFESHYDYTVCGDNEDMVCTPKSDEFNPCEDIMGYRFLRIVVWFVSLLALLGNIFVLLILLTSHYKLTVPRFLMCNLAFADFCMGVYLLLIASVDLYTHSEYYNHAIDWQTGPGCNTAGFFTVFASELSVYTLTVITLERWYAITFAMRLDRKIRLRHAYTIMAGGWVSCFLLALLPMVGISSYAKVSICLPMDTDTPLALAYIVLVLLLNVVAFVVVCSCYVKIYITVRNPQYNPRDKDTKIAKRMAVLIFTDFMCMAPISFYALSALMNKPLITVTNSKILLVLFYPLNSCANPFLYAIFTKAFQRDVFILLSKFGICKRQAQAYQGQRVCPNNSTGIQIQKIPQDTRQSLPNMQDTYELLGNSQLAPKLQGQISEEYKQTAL

[2] = target: T1, recombinant human TSHr preparation immobilized on coated tubes (human, UniProt P16473 21-764, limits assumed); test: displacement of 50% of 125I-labeled TSH from TSHr coated tubes
T1 construct: also called hTSHr coated tubes; TSHr coated tubes
Protocol: Selected mAbs and Fabs (generated after papain digestion) were purified by Sepharose-protein A affinity chromatography (ImmunoPure™ Fab preparation Kit, Pierce, Perbio Science, Belgium) and tested for their ability to stimulate cAMP production using JP26 CHO cells in normal isotonic medium (see above). For TBII activity determination, different amounts of antibodies were added in 250 μl of buffer A (20 mM Hepes-NaOH, pH 7.5, 50 mM NaCl, 1% BSA, 10% glycerol, 2 mg/ml mouse IgG) to hTSHr coated tubes. […] The tubes were incubated for 2 h at room temperature, washed four times with 2 ml washing buffer (8 mM Tris-Hl, 60 mM NaCl, 0.02% Tween-20, pH 7.5), and bound radioactivity was counted.

[3] = target: T1, recombinant human TSHr preparation …; test: saturation with acridinium ester labelled antibody on hTSHr coated tubes; Kd1 of a biphasic curve
Protocol: (§1) 5 ng (−200 000 RLU) of acridinium ester labelled monoclonal antibody (20) and different amounts of unlabeled antibodies were added in 0.3 ml of buffer A to TSHr coated tubes. Tubes were incubated for 24 h at room temperature, washed four times with 2 ml washing buffer, and RLU were measured in a luminometer.
(§2) The purified antibodies were subsequently labelled with acridinium ester and used in saturation experiments on hTSHr coated tubes.

[4] = target: T1, recombinant human TSHr preparation …; test: saturation with acridinium ester labelled antibody on hTSHr coated tubes; Kd2 of a biphasic curve
Protocol: as §1, §2

EC50 of cAMP production in JP26 cells (Fab) [1]: 74 nM
B3: IRI-SAb3 Fab fragment (Fab, V domains shown)
VH: SCKASGYSFTAYTMNWVKQSHGYNLEWIGLINPYNGGANYNQKFKGKATLTVDKSSSTAYMELLSLTSEDSAVYYCARRVWDYFDYWGQGTTLTVSS
VL: EGSITCKASQNVGTNVAWYQQKVGQSLELLIYGASSRHTGVPDRFTGSGSGTDFTLTITDVQSEDMTNYFCEQYSSYPLTFGAG

EC50 of cAMP production in MT3 cells, normal-salt medium (mouse TSHr): 3.8 nM
B4: IRI-SAb3 (antibody, IgG1, V domains shown)
VH: B3 VH
VL: B3 VL

Second part, the binder before the results:

B1: IRI-SAb2 (antibody, IgG2a, V domains shown)
VH: B3 VH with Y23K, Y34F, A38T, K45E, S57T, T92S
VL: B3 VL with V23G, S36N, S48R, D60N, S76R
notes: Mouse monoclonal IgG2a from a hybridoma; also called mAb IRI-SAb2; DSM ACC2664
EC50 of cAMP production in JP26 cells, normal salt medium (IgG) [1]: 2.75 nM | EC50 of cAMP production in MT3 cells, normal-salt medium (mouse TSHr): 1.3 nM | IC50 [2]: 0.3 µg/mL and 2 nM | Kd [3]: 0.07 nM | Kd [4]: 1.23 nM

B2: IRI-SAb2 Fab fragment (Fab, V domains shown)
VH: B3 VH with Y23K, Y34F, A38T, K45E, S57T, T92S
VL: B3 VL with V23G, S36N, S48R, D60N, S76R
EC50 of cAMP production in JP26 cells (Fab) [1]: 1.2 nM
